Reference: patent US20060172367

Key:
[1] = target: T1, fructosyl valine-histidine-leucine
T1 chain: VHL

[2] = target: T2, fructosyl valine-histidine
T2 chain: VH

[3] = target: T3, fructosyl valine-leucine-serine
T3 chain: VLS

fructosyl valine-leucine = target: T4, fructosyl valine-leucine
T4 chain: VL

B1: fructosylamine oxidase FAO-Q2 from Fusarium proliferatum GL2-1 strain (protein)
chain: MARTVAPLNKDSGILIVGGGTWGCSTALHLARRGYTNVTVLDVNRIPSPISAGHDVNKLSNRLGTSDSKGDDEDSIWKALTYAAAQGWLHDPIFQPFCHNTGAVMAGSTPKSIKQLVEDEIGDDIDQYTPLNTAEDFRRTMPERILTGDFLGWKGFYKPRGSGWVHARKAMKAAFEESQRLGVKFITGSPEGKVESLVFEAGDVKGAKTADGKEHRADRTILSAGASAEFSLDFENQIRPTAWTLGHIQMTAEETKLYKELPPLFNINQGFFMEPDEDLHQLKMCDEHPGYCNWVDKPGSKYPQSIPFAKYQVPIEAERRMKQFLKDIMPQLADRPLVHARICWCADTQDRMFLITYHPRHPSLVIASGDCGTGYKHITSIGKFISDCMEGTLEERFAKFWRWRPEKFTEFWGKDPLDRFGADDKIMDLPKSDAEGWTDIQNDK
- Relative activity (%) [1]: 0.6%
- Relative activity (%) [2]: 2.4%
- Relative activity (%) [3]: 3.3%
- Relative activity (%) (fructosyl valine-leucine): 0.6%

B2: fructosylamine oxidase FAO-Q1 from Fusarium proliferatum GL2-1 strain (protein)
chain: MAGPPSSILIVGSGVFGLGTAWALAKRSHFSNTSITVVDDCAGQFPPEDAASVDSSRIVRADYSDPYYAALAAEAQKEWRKQGDHEVGGQGRYSESGFVLCASETPEDFKLKKSGMDYTKESAKNVELIAKETGLPVDKIQKLESTKALQEFLGTDGYPGDWGYLNGNSGWADAGEGMKWLYKQAQATGRIHFVNGKVTELVTEGDRVIGAKLSDSKILKADVVMVAAGAWSGSLVDLRGRTEATGHAVAYMDITPEEQKRLDNFPVVLNLSTGLFLIPPRNNVLKAARHTFGYINPVKINNALPPSPNDKREPFIASQPYTSRNDSSNPLTVEADKDLRRALTDLCPIRGLETRPWKEARICWYSDTRDGEWLIDYHPGWKGLFVATGDSGHGFKFLPNLGEKIVDVMQGQGGKLGEKWRWKEIQNDGVGRETNGVYTGLVTEDGSRGGRPLVLCDELEKGRALIGNTKAKL
- Relative activity (%) (fructosyl valine-leucine): 1.1%
